Measured values from the Human Domainome abundance scans (Beltran et al. 2025).
± gives the uncertainty stated by the source.

B1: Zinc finger MYM-type protein 6, residues 427 to 504; numbered along this chain, O95789 (parent)
chain: KLKCQHCNHLFATKPELLFYKGKMFLFCGKNCSDEYKKKNKVVAMCDYCKLQKIIKETVRFSGVDKPFCSEVCKFLSA

Variants of: B1
Test: abundance fitness (aPCA) (normalised: wild type 0, dead -1); higher = more abundant; growth selection in yeast, the domain comes from the species named
Details: Homo sapiens

Variant | abundance fitness
KLKCQHCNHLFATLPELLFYKGKMFLFCGKNCSDEYKKKNKVVAMCDYCKLQKIIKETVRFSGVDKPFCSEVCKFLSA | -0.101 ± 0.033
KLKCQHCNHLFATKPELLFYKGKMFLFCGKNCSDEYKKKNKVVAMCDYCKLQKIIKETVRFSWVDKPFCSEVCKFLSA | -0.486 ± 0.18
KLKCQHCNHLFATKPELLFYKGKMFLFCGKNCSDEYKKKNKVVAMCDYCKLQKIIKETVRFSEVDKPFCSEVCKFLSA | -0.502 ± 0.17
KLKMQHCNHLFATKPELLFYKGKMFLFCGKNCSDEYKKKNKVVAMCDYCKLQKIIKETVRFSGVDKPFCSEVCKFLSA | -1.05 ± 0.4
KLKCQHCNHLFAGKPELLFYKGKMFLFCGKNCSDEYKKKNKVVAMCDYCKLQKIIKETVRFSGVDKPFCSEVCKFLSA | -0.024 ± 0.029
KLKCQHCNHLFAQKPELLFYKGKMFLFCGKNCSDEYKKKNKVVAMCDYCKLQKIIKETVRFSGVDKPFCSEVCKFLSA | -0.093 ± 0.048
KLKCQHCNHLFATKPELLFYKGKMFLFCGKNCSDEYKKKNKVLAMCDYCKLQKIIKETVRFSGVDKPFCSEVCKFLSA | -0.7 ± 0.33
KLKCQHCNHLFATKPELLFYKGKMFLFCGKNCSDEYKKKNKVVAMCDYCKLQKIISETVRFSGVDKPFCSEVCKFLSA | -0.411 ± 0.15
KLKCQHCNHLFATKPELLFYKGKMFLFCGKNCSDEYKKKNKVVAMCDYCKLQKIIGETVRFSGVDKPFCSEVCKFLSA | -0.192 ± 0.078
KLKCQHCNHLFATKMELLFYKGKMFLFCGKNCSDEYKKKNKVVAMCDYCKLQKIIKETVRFSGVDKPFCSEVCKFLSA | -0.335 ± 0.056
KLPCQHCNHLFATKPELLFYKGKMFLFCGKNCSDEYKKKNKVVAMCDYCKLQKIIKETVRFSGVDKPFCSEVCKFLSA | -0.071 ± 0.043
KLKCQHCNHLFATKPELLFYKGKMFLFCGKNCSDEYKKKNKVVACCDYCKLQKIIKETVRFSGVDKPFCSEVCKFLSA | -0.407 ± 0.26
KLKCQHCNHQFATKPELLFYKGKMFLFCGKNCSDEYKKKNKVVAMCDYCKLQKIIKETVRFSGVDKPFCSEVCKFLSA | 0.023 ± 0.04
KLKCQHCNHLFATKPELLFYKGKMFLFCGENCSDEYKKKNKVVAMCDYCKLQKIIKETVRFSGVDKPFCSEVCKFLSA | -0.037 ± 0.037
KLKCQHCNHLFATKPELLFYKGKMFLFCGPNCSDEYKKKNKVVAMCDYCKLQKIIKETVRFSGVDKPFCSEVCKFLSA | -0.107 ± 0.035
KLKCQHCNHLFATKPELLFIKGKMFLFCGKNCSDEYKKKNKVVAMCDYCKLQKIIKETVRFSGVDKPFCSEVCKFLSA | 0.031 ± 0.1
KLKCQHCNHLFATKPELLFYKGKMFLFCGKNCSDEYKKKNKVVAMMDYCKLQKIIKETVRFSGVDKPFCSEVCKFLSA | -0.159 ± 0.12
KLKCQHCNHLFATKPELLFYKGKMFLFCGKNCSDEYKKKNKVVWMCDYCKLQKIIKETVRFSGVDKPFCSEVCKFLSA | -0.558 ± 0.28
KIKCQHCNHLFATKPELLFYKGKMFLFCGKNCSDEYKKKNKVVAMCDYCKLQKIIKETVRFSGVDKPFCSEVCKFLSA | -0.06 ± 0.054
KHKCQHCNHLFATKPELLFYKGKMFLFCGKNCSDEYKKKNKVVAMCDYCKLQKIIKETVRFSGVDKPFCSEVCKFLSA | -0.131 ± 0.11
KCKCQHCNHLFATKPELLFYKGKMFLFCGKNCSDEYKKKNKVVAMCDYCKLQKIIKETVRFSGVDKPFCSEVCKFLSA | -0.089 ± 0.042
KLKCQHCNHLFATKPELLFYKGKMFLFCGKNCSDEYKKKNKVVAMCDYCKLQKIIKETVRFSGVDKPFCSEVCKFPSA | -0.5 ± 0.35
KLKCQHCNHLFATKPELLFYKGKMFLFCGKNCSDEYKKKNKVVAMCDYCKLQKIIKETVRFSGVDKPFCSEVCKFMSA | 0.759 ± 0.09
KLKCQHCNELFATKPELLFYKGKMFLFCGKNCSDEYKKKNKVVAMCDYCKLQKIIKETVRFSGVDKPFCSEVCKFLSA | -0.028 ± 0.035

Variant | abundance fitness
KLKCQHCVHLFATKPELLFYKGKMFLFCGKNCSDEYKKKNKVVAMCDYCKLQKIIKETVRFSGVDKPFCSEVCKFLSA | -0.088 ± 0.031
KLKCQHCAHLFATKPELLFYKGKMFLFCGKNCSDEYKKKNKVVAMCDYCKLQKIIKETVRFSGVDKPFCSEVCKFLSA | 0.013 ± 0.032
KLKCQHCFHLFATKPELLFYKGKMFLFCGKNCSDEYKKKNKVVAMCDYCKLQKIIKETVRFSGVDKPFCSEVCKFLSA | -0.172 ± 0.07
KLKCQHCEHLFATKPELLFYKGKMFLFCGKNCSDEYKKKNKVVAMCDYCKLQKIIKETVRFSGVDKPFCSEVCKFLSA | 0.018 ± 0.038
KLKCQHCNHLFATKPELLFYKGKMFLFCGKNCSDEYKKKNKVVAMCDYCKLQKSIKETVRFSGVDKPFCSEVCKFLSA | 0.174 ± 0.18
KLKCRHCNHLFATKPELLFYKGKMFLFCGKNCSDEYKKKNKVVAMCDYCKLQKIIKETVRFSGVDKPFCSEVCKFLSA | -0.226 ± 0.03
KLKCDHCNHLFATKPELLFYKGKMFLFCGKNCSDEYKKKNKVVAMCDYCKLQKIIKETVRFSGVDKPFCSEVCKFLSA | -0.405 ± 0.071
KLKCSHCNHLFATKPELLFYKGKMFLFCGKNCSDEYKKKNKVVAMCDYCKLQKIIKETVRFSGVDKPFCSEVCKFLSA | -0.248 ± 0.053
KLKCQHCNHLFATKPELLFYKGKMFLFCGKNCSDEHKKKNKVVAMCDYCKLQKIIKETVRFSGVDKPFCSEVCKFLSA | -0.005 ± 0.076
KLKCQHCNHLFATKPELLFYKGKMFLFCGKNCSDEYKKKNKVVAMCDYCKLQKIIKETKRFSGVDKPFCSEVCKFLSA | -0.051 ± 0.11
KLKCQHCNHLFATKPELLFYKGKMFLFCGKNCSDEYKKKNKVVAMCDYCKLQKIIKMTVRFSGVDKPFCSEVCKFLSA | 0.605 ± 0.12
MLKCQHCNHLFATKPELLFYKGKMFLFCGKNCSDEYKKKNKVVAMCDYCKLQKIIKETVRFSGVDKPFCSEVCKFLSA | -0.252 ± 0.05
KLKCQECNHLFATKPELLFYKGKMFLFCGKNCSDEYKKKNKVVAMCDYCKLQKIIKETVRFSGVDKPFCSEVCKFLSA | 0.008 ± 0.034
KLKCQRCNHLFATKPELLFYKGKMFLFCGKNCSDEYKKKNKVVAMCDYCKLQKIIKETVRFSGVDKPFCSEVCKFLSA | -0.03 ± 0.029
KLKCQHCNHLFATKPELLFYKGKMFLFCGKNCSDEYKKKNKVVAMCDYCKLQKIIKEPVRFSGVDKPFCSEVCKFLSA | -0.328 ± 0.21
KLKCQHCNHLFATKPELLFYKGKMFLFCGKNCSDEYKKKNKVVAMCDYCKLQKIIKEYVRFSGVDKPFCSEVCKFLSA | 0.177 ± 0.41
KLKCQHCNHLFATKPELLFYKGKMFLFCGKNCSDEYKKKNKVVAMCDYCKLQKIIKELVRFSGVDKPFCSEVCKFLSA | -0.546 ± 0.45
KLKCQHCNHLFATKPELLFYKGKMFLFCGKNCSDEYKKKNKVVAMCDYCKLQKIIKETVRMSGVDKPFCSEVCKFLSA | 0.979 ± 0.1
KLKCQHCNHLFATKPELLFYKGKMFLFCGKNCSDEYKKKPKVVAMCDYCKLQKIIKETVRFSGVDKPFCSEVCKFLSA | -0.172 ± 0.04
KLKCQHCNHLFATKPELLFYKGKMFLFCGKNCSDEYKKKAKVVAMCDYCKLQKIIKETVRFSGVDKPFCSEVCKFLSA | -0.02 ± 0.064
KLKCQHCNHLFATKPELAFYKGKMFLFCGKNCSDEYKKKNKVVAMCDYCKLQKIIKETVRFSGVDKPFCSEVCKFLSA | -0.031 ± 0.036
KLKCQHCNHLFATKPELQFYKGKMFLFCGKNCSDEYKKKNKVVAMCDYCKLQKIIKETVRFSGVDKPFCSEVCKFLSA | -0.042 ± 0.068
KLKCQHCNHLFATKPELLFYKGKMFLFCGKNCSDRYKKKNKVVAMCDYCKLQKIIKETVRFSGVDKPFCSEVCKFLSA | -0.021 ± 0.03
KLKCQHCNHLFATKPELLFYKEKMFLFCGKNCSDEYKKKNKVVAMCDYCKLQKIIKETVRFSGVDKPFCSEVCKFLSA | 0.049 ± 0.057

Variant | abundance fitness
KLKCQHCNHLFATKPELLFYKGKMFLFCGKNCSDEYKKSNKVVAMCDYCKLQKIIKETVRFSGVDKPFCSEVCKFLSA | 0.003 ± 0.043
KLKCQHCNHLFATKPELLFYKGKMFLLCGKNCSDEYKKKNKVVAMCDYCKLQKIIKETVRFSGVDKPFCSEVCKFLSA | -0.073 ± 0.037
KLKCQHCNHLFATKPELLFYKGKMFLFCGKNCSDEYKKKNKVVAMCDYCKLQKIIKETVRFSGVDKPFCSEVCKFLSE | -0.067 ± 0.31
KLKCQHCNHLFATKPELLFYKGKMFLFCGKNCSDEYKKKNKVVAMCDYCKLQKIIKETVRFSGVDKPFCSEVCKFLSD | 0.891 ± 0.22
KLKCQHCNHLFATKPELLFYKGKMFLFCGKNCSDEYKKKNKVVAMCDYCKLQKIIKETVRFSGVDKPFCSEVCKFLSS | -0.11 ± 0.14
KLKCQHCNHLFATKPELLFYKGKMFLFCGKNCSDEYKKKNKVVAMCDYCKLQKIIKETVRFSGVDKPFCSERCKFLSA | 0.411 ± 0.066
KLKCQHCNHLFATKPELLFYKGKMFLFCGKNCSDEYKKKNKVVAMCDYCKLQKIIKETVRFSGVDKPFCSECCKFLSA | 0.553 ± 0.2
KLKCQHCNHLFATKPELLFYKGKMFLFCGKNCSDEYKKKNKVVAMCDYCKLAKIIKETVRFSGVDKPFCSEVCKFLSA | -0.485 ± 0.11
KLKCQHCNHLFYTKPELLFYKGKMFLFCGKNCSDEYKKKNKVVAMCDYCKLQKIIKETVRFSGVDKPFCSEVCKFLSA | -0.205 ± 0.08
KLKCQHCNHLFATKPELLFYKGKMFLFCGKNCSDEYKKKNKVVAMCDACKLQKIIKETVRFSGVDKPFCSEVCKFLSA | -0.557 ± 0.11
KLKCQHCNHLFATKPELLFYKGKMFLFGGKNCSDEYKKKNKVVAMCDYCKLQKIIKETVRFSGVDKPFCSEVCKFLSA | -0.866 ± 0.04
KLKCQHCNHLFATKPELLFYKGKTFLFCGKNCSDEYKKKNKVVAMCDYCKLQKIIKETVRFSGVDKPFCSEVCKFLSA | 0.118 ± 0.046
KLKCQHCNHLFATKPELLFYKGKMFLFCGKNCCDEYKKKNKVVAMCDYCKLQKIIKETVRFSGVDKPFCSEVCKFLSA | -0.077 ± 0.05
KLKCQHCNHLFATKPELLFYKGKMFLFCGKNCGDEYKKKNKVVAMCDYCKLQKIIKETVRFSGVDKPFCSEVCKFLSA | -0.141 ± 0.027
KLKCQHCNHLFATKPELLFYKGKMFLFCGKNCSQEYKKKNKVVAMCDYCKLQKIIKETVRFSGVDKPFCSEVCKFLSA | -0.034 ± 0.048
KLKCQHCNHLFATKPELLFYKGKMFLFCGKNCSDEYKKKNKVVAMCDYCKLQKIIKETVRFSGVDKPQCSEVCKFLSA | -0.341 ± 0.17
KLKCQHCNHLFATKPELLFYKGKMFLFCGKNCSDEYKKKNKVVAMCDYCKLQKISKETVRFSGVDKPFCSEVCKFLSA | 0.305 ± 0.088
KLKCQHENHLFATKPELLFYKGKMFLFCGKNCSDEYKKKNKVVAMCDYCKLQKIIKETVRFSGVDKPFCSEVCKFLSA | -0.722 ± 0.066
KLKCQHCNHLFATKPELLFYKGKMFLFCGKNCSDEYKKKNKVVAMCDYCKLQGIIKETVRFSGVDKPFCSEVCKFLSA | -0.148 ± 0.067
KLKCQHCNHLFATKPELLFYKGKMFLFCGKNCSDEYKKKNKVVAMCDYCKLQWIIKETVRFSGVDKPFCSEVCKFLSA | -0.313 ± 0.09
KLKCQHCNHLFATKPELLFYKGKMFLFCGKNCSDEYDKKNKVVAMCDYCKLQKIIKETVRFSGVDKPFCSEVCKFLSA | -0.057 ± 0.065
KLKCQHCNHLFATKPELLFYKGKMFLFCGKNCSDEYSKKNKVVAMCDYCKLQKIIKETVRFSGVDKPFCSEVCKFLSA | -0.068 ± 0.051
